Molecular target: R1-32 (human)
Assay: BLI

Substance: SARS-CoV-2 Omicron BA.2.11 RBD (from UniProt P0DTC2 332-527) (domain or fragment)
- Kd: > 55 nM

Source: article doi:10.64898/2025.12.19.695307
